# Test results: patent publication US20190135872A1
# Assays:
# [1] = target: 16055 NFL (I559P) parental (HIV-1 16055 (clade C)); assay: ELISA, His-captured trimer
# [2] = target: 16055 NFL-CC2 (HIV-1 16055 (clade C)); assay: ELISA, His-captured trimer
# [3] = target: 16055 NFL-L555P (HIV-1 16055 (clade C)); assay: ELISA, His-captured trimer
# [4] = target: 16055 NFL-Q563P (HIV-1 16055 (clade C)); assay: ELISA, His-captured trimer
# [5] = target: 16055 NFL-TD+CC2-D4K_I559P (HIV-1 16055 (clade C)); assay: ELISA, His-captured trimer
# [6] = target: 16055 NFL-TD+CC2-D4K_I559P w/rEK (HIV-1 16055 (clade C)); assay: ELISA, His-captured trimer
# [7] = target: 16055 NFL-TD+CC2-D4K_L555P (HIV-1 16055 (clade C)); assay: ELISA, His-captured trimer
# [8] = target: 16055 NFL-TD+CC2-D4K_L555P w/rEK (HIV-1 16055 (clade C)); assay: ELISA, His-captured trimer
# [9] = target: BG505 NFL (I559P) parental (HIV-1 BG505 (clade A)); assay: ELISA, His-captured trimer
# [10] = target: BG505 NFL-CC2 (HIV-1 BG505 (clade A)); assay: ELISA, His-captured trimer
# [11] = target: BG505 NFL-L555P (HIV-1 BG505 (clade A)); assay: ELISA, His-captured trimer
# [12] = target: BG505 NFL-TD+CC2-D4K_I559P (HIV-1 BG505 (clade A)); assay: ELISA, His-captured trimer
# [13] = target: BG505 NFL-TD+CC2-D4K_I559P w/rEK (HIV-1 BG505 (clade A)); assay: ELISA, His-captured trimer
# [14] = target: BG505 NFL-TD+CC2-D4K_L555P (HIV-1 BG505 (clade A)); assay: ELISA, His-captured trimer
# [15] = target: BG505 NFL-TD+CC2-D4K_L555P w/rEK (HIV-1 BG505 (clade A)); assay: ELISA, His-captured trimer
# [16] = target: JRFL NFL-CC2 (HIV-1 JRFL (clade B)); assay: ELISA, His-captured trimer
# [17] = target: 16055 NFL (I559P) parental (HIV-1 16055 (clade C)); assay: BLI, IgG captured, trimer as analyte
# [18] = target: 16055 NFL-CC2 (HIV-1 16055 (clade C)); assay: BLI, IgG captured, trimer as analyte
# [19] = target: 16055 NFL-L555P (HIV-1 16055 (clade C)); assay: BLI, IgG captured, trimer as analyte
# [20] = target: 16055 NFL-Q562P (HIV-1 16055 (clade C)); assay: BLI, IgG captured, trimer as analyte
# [21] = target: 16055 NFL-Q563P (HIV-1 16055 (clade C)); assay: BLI, IgG captured, trimer as analyte
# [22] = target: 16055 NFL-TD+CC2-D4K_I559P (HIV-1 16055 (clade C)); assay: BLI, IgG captured, trimer as analyte
# [23] = target: 16055 NFL-TD+CC2-D4K_L555P (HIV-1 16055 (clade C)); assay: BLI, IgG captured, trimer as analyte
# [24] = target: BG505 NFL (I559P) parental (HIV-1 BG505 (clade A)); assay: BLI, IgG captured, trimer as analyte
# [25] = target: BG505 NFL-CC2 (HIV-1 BG505 (clade A)); assay: BLI, IgG captured, trimer as analyte
# [26] = target: BG505 NFL-L555P (HIV-1 BG505 (clade A)); assay: BLI, IgG captured, trimer as analyte
# [27] = target: BG505 NFL-N554P (HIV-1 BG505 (clade A)); assay: BLI, IgG captured, trimer as analyte
# [28] = target: BG505 NFL-Q562P (HIV-1 BG505 (clade A)); assay: BLI, IgG captured, trimer as analyte
# [29] = target: BG505 NFL-Q563P (HIV-1 BG505 (clade A)); assay: BLI, IgG captured, trimer as analyte
# [30] = target: BG505 NFL-S553P (HIV-1 BG505 (clade A)); assay: BLI, IgG captured, trimer as analyte
# [31] = target: BG505 NFL-TD+CC2-D4K_I559P (HIV-1 BG505 (clade A)); assay: BLI, IgG captured, trimer as analyte
# [32] = target: BG505 NFL-TD+CC2-D4K_L555P (HIV-1 BG505 (clade A)); assay: BLI, IgG captured, trimer as analyte
# [33] = target: +N332 N276Q/N360Q/N463Q (HIV-1 16055 (Indian subtype C)); assay: BLI, trimer on anti-His sensor, Fab analyte
# [34] = target: +N332 N276Q/N360Q/N463Q/N301Q (HIV-1 16055 (Indian subtype C)); assay: BLI, trimer on anti-His sensor, Fab analyte
# [35] = target: +N332 N301Q (HIV-1 16055 (Indian subtype C)); assay: BLI, trimer on anti-His sensor, Fab analyte
# [36] = target: N276Q/N463Q trimer (PT backbone) (HIV-1 16055 (Indian subtype C)); assay: BLI, trimer on anti-His sensor, Fab analyte
# [37] = target: +N332 N276Q/N360Q/N463Q/N301Q (HIV-1 16055 (Indian subtype C)); assay: negative-stain EM, 2D classes of trimer-Fab complexes
# [38] = target: +N332 PT (HIV-1 16055 (Indian subtype C)); assay: as above
# [39] = target: +N332 N276Q/N360Q/N463Q (HIV-1 16055 (Indian subtype C)); assay: BLI (Octet): trimer on anti-His sensor, Fab in solution, 1:1 global fit
# [40] = target: +N332 N276Q/N360Q/N463Q/N301Q (HIV-1 16055 (Indian subtype C)); assay: as above
# [41] = target: +N332 N301Q (HIV-1 16055 (Indian subtype C)); assay: as above
# [42] = target: +N332 PT (HIV-1 16055 (Indian subtype C)); assay: as above
# [43] = target: 16055 NFL TD CC (T569G) (HIV-1 16055 (Indian subtype C)); assay: as above
# [44] = target: N276Q/N463Q trimer (PT backbone) (HIV-1 16055 (Indian subtype C)); assay: as above
substance,measurement,setting,value
2G12 (antibody),EC50,[1],2.34 µg/mL
same,EC50,[2],0.056 µg/mL
same,EC50,[3],0.051 µg/mL
same,EC50,[4],0.066 µg/mL
same,EC50,[5],0.043 µg/mL
same,EC50,[6],0.105 µg/mL
same,EC50,[7],0.038 µg/mL
same,EC50,[8],0.11 µg/mL
same,EC50,[9],0.029 µg/mL
same,EC50,[10],0.025 µg/mL
same,EC50,[11],0.022 µg/mL
same,EC50,[12],0.024 µg/mL
same,EC50,[13],0.031 µg/mL
same,EC50,[14],0.027 µg/mL
same,EC50,[15],0.021 µg/mL
same,EC50,[16],0.022 µg/mL
PGT145 (antibody),EC50,[2],0.013 µg/mL
same,EC50,[3],0.014 µg/mL
same,EC50,[4],0.013 µg/mL
same,EC50,[5],0.015 µg/mL
same,EC50,[6],0.019 µg/mL
same,EC50,[7],0.014 µg/mL
same,EC50,[8],0.015 µg/mL
same,EC50,[9],0.016 µg/mL
same,EC50,[10],0.011 µg/mL
same,EC50,[11],0.018 µg/mL
same,EC50,[12],0.013 µg/mL
same,EC50,[13],0.016 µg/mL
same,EC50,[14],0.014 µg/mL
same,EC50,[15],0.015 µg/mL
same,EC50,[16],0.012 µg/mL
same,Kd,[17],1.9 nM
same,Kd,[18],16 nM
same,koff,[18],0.004 s⁻¹
same,kon,[18],240000 M⁻¹ s⁻¹
same,Kd,[19],3.3 nM
same,koff,[19],0.001 s⁻¹
same,kon,[19],310000 M⁻¹ s⁻¹
same,Kd,[20],2.9 nM
same,koff,[20],0.0009 s⁻¹
same,kon,[20],300000 M⁻¹ s⁻¹
same,Kd,[21],1.6 nM
same,koff,[21],0.0005 s⁻¹
same,kon,[21],320000 M⁻¹ s⁻¹
same,Kd,[22],25 nM
same,koff,[22],0.0056 s⁻¹
same,kon,[22],220000 M⁻¹ s⁻¹
same,Kd,[23],16 nM
same,koff,[23],0.0035 s⁻¹
same,kon,[23],220000 M⁻¹ s⁻¹
same,Kd,[24],6.2 nM
same,Kd,[25],21 nM
same,koff,[25],0.0034 s⁻¹
same,kon,[25],160000 M⁻¹ s⁻¹
same,Kd,[26],2.9 nM
same,Kd,[27],4.3 nM
same,Kd,[28],6.2 nM
same,Kd,[29],3.6 nM
same,Kd,[30],5 nM
same,Kd,[31],16 nM
same,koff,[31],0.0027 s⁻¹
same,kon,[31],170000 M⁻¹ s⁻¹
same,Kd,[32],19 nM
same,koff,[32],0.0031 s⁻¹
same,kon,[32],170000 M⁻¹ s⁻¹
VRC01 (antibody),EC50,[1],0.055 µg/mL
same,EC50,[2],0.021 µg/mL
same,EC50,[3],0.178 µg/mL
same,EC50,[4],0.294 µg/mL
same,EC50,[5],0.059 µg/mL
same,EC50,[6],0.208 µg/mL
same,EC50,[7],0.067 µg/mL
same,EC50,[8],0.178 µg/mL
same,EC50,[9],0.05 µg/mL
same,EC50,[10],0.059 µg/mL
same,EC50,[11],0.07 µg/mL
same,EC50,[12],0.042 µg/mL
same,EC50,[13],0.066 µg/mL
same,EC50,[14],0.051 µg/mL
same,EC50,[15],0.069 µg/mL
same,EC50,[16],0.032 µg/mL
VRC03 Fab,fold difference in affinity vs +N332 PT,[33],10 fold
same,fold difference in affinity vs +N332 PT,[34],8 fold
same,fold lower binding vs +N332 PT,[35],2 fold
same,fold more efficient recognition vs PT,[36],30 fold
same,share of trimers unliganded,[37],22%
same,share of trimers with 1 Fab,[37],23%
same,share of trimers with 2 Fabs,[37],30%
same,share of trimers with 3 Fabs,[37],25%
same,share of trimers unliganded,[38],19%
same,share of trimers with 1 Fab,[38],20%
same,share of trimers with 2 Fabs,[38],34%
same,share of trimers with 3 Fabs,[38],27%
same,Kd,[39],12.9 nM
same,koff,[39],0.000739 s⁻¹
same,kon,[39],57100 M⁻¹ s⁻¹
same,Kd,[40],16.4 nM
same,koff,[40],0.00124 s⁻¹
same,kon,[40],75400 M⁻¹ s⁻¹
same,Kd,[41],270 nM
same,koff,[41],0.0037 s⁻¹
same,kon,[41],13700 M⁻¹ s⁻¹
same,Kd,[42],131 nM
same,koff,[42],0.00204 s⁻¹
same,kon,[42],15600 M⁻¹ s⁻¹
same,Kd,[43],241 nM
same,koff,[43],0.0026 s⁻¹
same,kon,[43],10800 M⁻¹ s⁻¹
same,Kd,[44],8.6 nM
same,koff,[44],0.000505 s⁻¹
same,kon,[44],58700 M⁻¹ s⁻¹
